Legend:
C1-fused SRC kinases = assay: split reporter (BiFC, NanoBiT); Gaussia princeps luciferase complementation assay in human HEK293T cells; Gluc2 at the N terminus of SKAP1 or SKAP2 (N2), Gluc1 at the N terminus (N1) or C terminus (C1) of the SRC kinase; 100 ng plasmid pair, PEI; luminescence read in lysate one day later; normalized luminescence ratio (NLR), given relative to wild type or to SKAP2
LCK wild type, C1-fused = LCK wild type, C1-fused (UniProt P06239); assay: luciferase complementation assay (normalized luciferase ratio, NLR); conditions: HEK293T cells; one experiment; read off a plot
FGR, C1-fused = FGR, C1-fused (UniProt P09769); assay: as above; conditions: HEK293T cells; one experiment; read off a plot
BLK, C1-fused = BLK, C1-fused (UniProt P51451); assay: as above; conditions: HEK293T cells; one experiment; read off a plot
BLK, N1-fused = BLK, N1-fused (UniProt P51451); assay: as above; conditions: HEK293T cells; one experiment; read off a plot
[1] = molecular target: FYN (isoform without exon 7), C1-fused, P06241-3; assay: as above; conditions: HEK293T cells; one experiment; read off a plot
[2] = molecular target: HCK wild type, C1-fused, P08631-2; assay: as above; conditions: HEK293T cells; one experiment; read off a plot
[3] = molecular target: FYN (isoform without exon 7), N1-fused, P06241-3; assay: as above; conditions: HEK293T cells; one experiment; read off a plot
FRK, C1-fused = FRK, C1-fused (UniProt P42685); assay: as above; conditions: HEK293T cells; one experiment; read off a plot
LYN, N1-fused = LYN, N1-fused (UniProt P07948); assay: as above; conditions: HEK293T cells; one experiment; read off a plot
LYN, C1-fused = LYN, C1-fused (UniProt P07948); assay: as above; conditions: HEK293T cells; one experiment; read off a plot

Row | SKAP2 normalized NLR, mean over C1-fused SRC kinases (against wild type SKAP2) (C1-fused SRC kinases) | ratio to parent (LCK wild type, C1-fused) | ratio to parent (FGR, C1-fused) | ratio to parent (BLK, C1-fused) | ratio to parent (BLK, N1-fused) | ratio to parent [1] | ratio to parent [2] | ratio to parent [3] | ratio to parent (FRK, C1-fused) | ratio to parent (LYN, N1-fused) | ratio to parent (LYN, C1-fused) | Substance
1 | 0.39 | – | – | – | – | – | – | – | – | – | – | SRC kinase associated phosphoprotein 1 (SKAP1), wild type, N2-fused (from UniProt Q86WV1 1-359) (natural protein)
2 | – | 0.68 | 1.3 | 0.9 | 0.7 | 0.78 | 1.3 | 0.66 | 0.64 | 0.93 | 1.2 | SRC kinase associated phosphoprotein 1 (SKAP1), wild type, N2-fused (from UniProt Q86WV1) DIM-

— article PMC10939263
